This passage reports Kd and binding score results from publication PMC9876794 (2022).

Experiment [1] concerns the target T1, SARS-CoV-2 spike RBD (WT) (Severe acute respiratory syndrome …, UniProt P0DTC2). Briefly: BLI.
The target of experiment [2] is T1, SARS-CoV-2 spike RBD (WT). Briefly: ELISA. Further details: unit not given here.

B1: D063 (antibody, V domains shown)
VH: EVQLVQSGAEVKKPGESLKISCKGSGYSFTSYWIGWVRQMPGKGLEWMGIIYPGDSDTSPSFQGQVTISADKSISTAYLQWSSLKASDTAMYYCARVLNWNLGDYWGQGTLVTVSS
VL: not shown
What is called Kd is a measure of binding affinity in units of concentration. B1 displayed a Kd in experiment [1] of 94.8 nM. The molecule also registered a binding score in experiment [2] of 9040.

B2: C2739 (antibody, V domains shown)
VH: EVQLVESGGGLVQPGGSLRLSCAASGFTFSSYWMSWVRQAPGKGLEWVANIKKDGSEKYYVDSVKGRFTISRDNDKNSLYLQMNSLRAEDTAVYYCARKKYYYGDFDYWGQGTLVTVSS
VL: NFMLTQPHSVSESPGKTVTISCTRSSGSIASNYVQWYQQRPGSSPTTVIYEDNQRPSGVPDRFSGSIDSSSNSASLTISGLKTEDEADYYCQSYDSIIREVFGGGTKLTVL
In experiment [1], B2 had a Kd of 287 nM. The binding score in experiment [2] is 52.3.

B3: D138 (antibody, V domains shown)
VH: QVQLVESGGGVVQPGRSLRLSCAASGFTFSSYGMHWVRQAPGKGLEWVAVISYDGSNKYYADSVKGRFTISRDNSKNTLYLQMNSLRAEDTAVYYCAKRAPYYYGPGGIDYWGQGTLVTVSS
VL: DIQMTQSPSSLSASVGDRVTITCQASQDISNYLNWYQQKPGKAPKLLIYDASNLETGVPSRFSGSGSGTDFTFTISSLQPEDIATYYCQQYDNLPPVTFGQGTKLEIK
In the case of B3, in experiment [1], the affinity, expressed as Kd, was 201 nM. Also, in experiment [2], the binding score was 368.

B4: D038 (antibody, V domains shown)
VH: EVQLVQSGAEVKKPGESLKISCKGSGYSFTSYWIAWVRQMPGKGLEWMGIIYPGDSDTRYSPSFQGQVTISADKSISTAYLQWSSLKASDTAMYYCARQGYSYGYVDYWGQGTLVTVSS
VL: NFMLTQPHSVSESPGKTVTISCTRSSGSIASNYVQWYQQRPGSAPTTVIYEDNQRPSGVPDRFSGSIDSSSNSASLTISGLKTEDEADYYCQSYDSSNWVFGGGTKLTVL
Consider B4, for which the dissociation constant (Kd) in experiment [1] is 306 nM. The binding score in experiment [2] is above 10000.

B5: D103 (antibody, V domains shown)
VH: QVQLVESGGGVVQPGRSLRLSCAASGFTFSSYGMHWVRQAPGKGLEWVAVISYDGSNKYYADSVKGRFTISRDNSKNTLYLQMNSLRAEDTAVYYCAKGGYYDSSAYYGPLDYWGQGTLVTVSS
VL: SYVLTQPPSVSVAPGKTARITCGGNNIGSKSVHWYQQKPGQAPVLVVYDDSDRPSGIPERFSGSNSGNTATLTISRVEAGDEADYYCQVWDSSSDHWVFGGGTKLTVL
Molecule B5 yielded a dissociation constant (Kd) in experiment [1] of 2700 nM. Moreover, in experiment [2], the binding score was above 10000.

B6: C2701 (antibody, V domains shown)
VH: EVQLVESGGGLVQPGGSLRLSCAASGFTVSSNYMSWVRQAPGKGLEWVSVIYSGGSTYYADSVKGRFTISRHNSKNTLYLQMNSLRAEDTAVYYCARDYGDLFFDYWGQGTTVTVSS
VL: not shown
Take B6: the Kd in experiment [1] came out at 88.4 nM. In addition, the binding score in experiment [2] was 170.

B7: D126 (antibody, V domains shown)
VH: QVQLVQSGAEVKKPGASVKVSCKASGYTFTSYGISWVRQAPGQGLEWMGWISAYNGNTNYAQKLQGRVTMTTDTSTSTAYMELRSLRSDDTAVYYCARDDTSGWYTGDAFDIWGQGTMVTVSS
VL: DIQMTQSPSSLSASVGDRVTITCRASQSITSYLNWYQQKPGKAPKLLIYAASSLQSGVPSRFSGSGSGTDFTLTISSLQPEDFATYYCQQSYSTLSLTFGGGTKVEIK
In experiment [1], B7 yielded a dissociation constant Kd of 16.7 nM. The molecule further displayed a binding score in experiment [2] of 973.

B8: D145 (antibody, V domains shown)
VH: QVQLVESGGGVVQPGRSLRLSCAASGFTFSSYGMHWVRQAPGKGLEWVAVISYDGSNKYYADSVKGRFTISRDNSKNTLYLQMNSLRAEDTAVYYCAKGSGPYYYDSSGYYSLFDYWGQGTLVTVSS
VL: EIVMTQSPATLSVSPGERATLSCRASQSISSNLAWYQQKPGQAPRLLIDGASTRATGIPARFSGSGSGTEFTLTISSLQSEDFAVYYCQQYNNWPTFGQGTKLEIK
Turning to B8, the Kd in experiment [1] was 46.4 nM. The same molecule showed a binding score in experiment [2] of 0.826.

B9: D155 (antibody, V domains shown)
VH: QLQLQESGPGLVKPSETLSLTCTVSGGSISSSSYYWGWIRQPPGKGLEWIGSIYYSGSTYYNPSLKSRVTISVDTSKNQFSLKLSSVTAADTAVYYCARQPYYYDSSGINRAFDIWGQGTMVTVSS
VL: QSVLTQPRSVSGSPGQSVTISCTGTSSDVGGYNYVSWYQQHPGKAPKLMIYDVSKRPSGVPDRFSGSKSGNTASLTISGLQAEDEADYYCCSYAGTVVFGGGTKLTVL
B9 came in with an equilibrium dissociation constant (Kd) in experiment [1] of 116 nM. This molecule came in with a binding score in experiment [2] of 1000.

B10: D008 (antibody, V domains shown)
VH: QVQLVESGGGVVQPGRSLRLSCAASGFTFRSYGMHWVRQAPGKGLEWVAVISYDGSTKYYADSVKGRFTISRDNSKNTLYLQMNSLRAEDTAVYYCAKGGYYYDSNTYYVYWGQGTLVTVSS
VL: DIQMTQSPSSLSASVGDRVTITCQASQDISNHLNWYQQKPGKAPKLLIYDASNLETGVPSRFSGSGSGTDFTFTISSLQPEDIATYYCQQYDNLPPITFGQGTRLEIK
Take B10: the Kd in experiment [1] turned out to be 10.5 nM. In experiment [2], this molecule gave a binding score of 12.4.

B11: C2731 (antibody, V domains shown)
VH: QVQLQQWGAGLLKPSETLSRTCAVYGGSFSGYYWSWIRQSPGKGLEWIGEINHRGSTNYNPSLKSRVTISVDTSKNQLSLELRSVTAADTAVYYCARSPGWTTVTRPFDYWGQGALVTVSS
VL: EIVLTQSPGTLSLSPGERATLSCRASQSVSSNYLAWYQQKPGQAPRLLVYGASNRATGIPDRFSGSGSGTDFTLTISRLEPEDFAVFYCQQYSSSPVTFGQGTRLEIK
In experiment [1], B11 registered a dissociation constant (Kd) of 143 nM. Also, the binding score in experiment [2] came to 4400.

B12: C2717 (antibody, V domains shown)
VH: EVQLVESGGGLVQPGGSLRLSCAASGFTVSSNYMSWVRQAPGKGLEWVSVIYSGGSTYYADSVKGRFTISRDNSKNTLYLQMNSLRAEDTAVYYCARELYSSSSYFDYWGQGTLVTVSS
VL: QSVLTQPPSVSGAPGQRVTISCTGSSSNIGAGYDVHWYQQLPGTAPKLLIYGNSNRPSGVPDRFSGSKSGTSASLAITGLQAEDEADYYCQSYDSSLSGSGVFGGGTKLTVL
Molecule B12 returned a Kd in experiment [1] of 153 nM. In addition, the binding score in experiment [2] came to 124.

B13: D108 (antibody, V domains shown)
VH: QVQLVQSGAEVKKPGASVKVSCKASGYTFTSSDINWVRQATGQGLEWVGWMNPNSGNTGYAQKFQGRVTMTRNTSISTAYMELSSLRSEDTAVYYCASGPYWSGYYYYFDNWGQGTLVTVSS
VL: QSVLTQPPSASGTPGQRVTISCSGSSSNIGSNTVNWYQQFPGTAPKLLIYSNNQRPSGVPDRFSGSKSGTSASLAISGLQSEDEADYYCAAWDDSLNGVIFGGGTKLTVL
In experiment [1], B13 had a Kd of 6840 nM. This molecule also displayed a binding score in experiment [2] of 6120.

B14: C2705 (antibody, V domains shown)
VH: EVQLVQSGAEVKKPGESLKISCKGSGYSFTSYWIGWVRQMPGKGLEWMGIIYPGDSDTRYSPSFQGQVTISADKSISTAYLQWSSLKASDTAMYYCARPVVTDYWYFDLWGRGTLVTVSS
VL: not shown
B14: the dissociation constant Kd in experiment [1] is 14 nM. Besides, the binding score in experiment [2] is 867.

B15: D173 (antibody, V domains shown)
VH: EVQLVQSGAEVKKPGESLRISCKGSGYSFTSYWISWVRQMPGKGLEWMGRIDPSDSYTNYSPSFQGHVTISADKSISTAYLQWSSLKASDTAMYYCASQGLVPAAIEIWDYWGQGTLVTVSS
VL: EIVLTQSPATLSLSPGERATLSCRASQSVSSYLAWYQQKPGQAPRLLIYDASNRATGIPARFSGSGSGTDFTLTISSLEPEDFAVYYCQQHSNWPLTFGGGTKVEIK
Molecule B15 returned a Kd in experiment [1] of 60.3 nM. This molecule yielded a binding score in experiment [2] of 181.

B16: C2738 (antibody, V domains shown)
VH: QVQLQESGPGLVKPSETLSLTCTVSGGSISSYYWSWIRQPAGKGLEWIGRIYTSGSTNYNPSLKSRVTMSVDTSKNQFSLKLSSVTAADTAVYYCARDLWGGSRPFNWFDPWGQGTLVTVSS
VL: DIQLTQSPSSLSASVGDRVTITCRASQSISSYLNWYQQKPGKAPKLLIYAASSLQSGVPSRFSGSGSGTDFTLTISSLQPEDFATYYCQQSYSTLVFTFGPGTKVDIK
Molecule B16 gave a dissociation constant (Kd) in experiment [1] of 10.2 nM. In experiment [2], this molecule returned a binding score of 21.1.

B17: D007 (antibody, V domains shown)
VH: QVQLVESGGGVVQPGGSLRLSCAASGFTFSSYGMHWVRQAPGKGLEWVAFIRYDGSNKYYADSVKGRFTISRDNSKNTLYLQMNSLRAEDTAVYYCAKDQYYYGSGSYSDYWGQGTLVTVSS
VL: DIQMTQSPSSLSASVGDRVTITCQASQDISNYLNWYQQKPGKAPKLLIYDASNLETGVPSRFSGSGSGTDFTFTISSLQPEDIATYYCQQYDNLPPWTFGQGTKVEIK
In experiment [1], B17 registered a dissociation constant Kd of 6720 nM. This molecule showed a binding score in experiment [2] of 8280.

B18: C2712 (antibody, V domains shown)
VH: EVQLVESGGGLVQPGGSLRLSCVASGFTFSSDDIHWVRQATGKGLEWVSGIGTAGDTYYAGSVKGRFTISRENAKNSLYLQMKSLRAGDTAVYYCARGVQSWLRGYYYYYMDVWGKGTTVTVSS
VL: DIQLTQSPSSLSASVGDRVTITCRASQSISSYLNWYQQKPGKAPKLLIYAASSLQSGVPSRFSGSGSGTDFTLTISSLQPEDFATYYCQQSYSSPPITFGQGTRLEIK
B18 registered a Kd in experiment [1] of 19.6 nM. In addition, the binding score in experiment [2] worked out at 7.83.

B19: C2702 (antibody, V domains shown)
VH: EVQLVESGGGLVQPGGSLRLSCAASGFTFSSYSMNWVRQAPGKGLEWVSYISSSSSTIYYADSVKGRFTISRDNAKNSLYLQMNSLRDEDTAVYYCASFLWDHSGYDLLFGMDVWGQGTTVTVSS
VL: not shown
Turning to B19, the affinity in experiment [1], expressed as Kd, was 125 nM. This molecule registered a binding score in experiment [2] of 295.

B20: C2715 (antibody)
chain 1: not shown
chain 2: DIQLTQSPSSVSASVGDRVTITCRASQGISSWLAWYQQKPGKAPKLLIYAASSLQSGVPSRFSGSGSGTDFTLTISSLQPEDFATYYCQQANSFPRTFGQGTKVEIK
In experiment [1], B20 gave an equilibrium dissociation constant (Kd) of 63.4 nM. In experiment [2], this molecule gave a binding score of 189.

B21: D009 (antibody, V domains shown)
VH: EVQLLESGGGLVQPGGSLRLSCAATGFTFGSYTMTWVRQAPGKGLEWVSSISVSGRRTYYAGSVQGRFTVSRDNSMNALFLQMNSLRADDTAVYYCARDAPREAYYDRTGHYIFYYGMDLWGQGTTVTVSS
VL: EIVMTQSPATLSVSPGERATLSCRASQSVSDNLAWYQQKPGQAPRLLIYGASTRAIGIPDRFTGSGSGTEFTLTISSLQSEDFAVYYCQHYNNGPSVGFGQGTRVEFK
For the molecule B21, in experiment [1], the Kd turned out to be 5440 nM. The binding score in experiment [2] is 2390.

B22: D083 (antibody, V domains shown)
VH: EVQLVQSGAEVKKPGESLKISCKGSGYSFTSHWIGWVRQMPGKGLEWMGIIYPGDSDTRYSPSFQGQVTISADKSISTAYLQWSSLKASDTAMYYCARHIKSDLWFGEKDSWGQGTLVTVSS
VL: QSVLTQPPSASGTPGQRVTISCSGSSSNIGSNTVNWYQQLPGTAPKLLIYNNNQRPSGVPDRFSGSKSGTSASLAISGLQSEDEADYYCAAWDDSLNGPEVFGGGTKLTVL
B22 came in with a Kd in experiment [1] of 12.3 nM. In addition, the binding score in experiment [2] was found to be 62.7.

B23: D053 (antibody, V domains shown)
VH: EVQLVESGGGLVKPGGSLRLSCAASGFTFSNAWMSWVRQAPGKGLEWIGRIKSNTDGGTIDYAAPVKGRFTISRDDSKNTLYLQMNSLKTEDTAVYYCTTDGAFFVVADPFDYWGQGTLVTVSS
VL: DIQMTQSPSSLSASVGDRVTITCRASQSMTNYLNWYQQKPGKAPELLIYGVSSLQSGVPSRFSGSGSGTDFTLTISSLQPEDFATYYCQQSYRTPRTFGQGTKVEIK
In turn, B23 came in with a Kd in experiment [1] of 2420 nM. The binding score in experiment [2] is 3050.
